The record followed here is patent US20230295310A1 (ABCELLERA BIOLOGICS, published 2023).

The target of this test is human CD3 (human, UniProt P07766 23-207; P04234 22-171; P09693 23-182). Kind of test: cell-based or functional assay.

Substitutions are numbered along the chain they refer to.

Sequence of human CD3 (P07766 23-207, chain 1 of 3): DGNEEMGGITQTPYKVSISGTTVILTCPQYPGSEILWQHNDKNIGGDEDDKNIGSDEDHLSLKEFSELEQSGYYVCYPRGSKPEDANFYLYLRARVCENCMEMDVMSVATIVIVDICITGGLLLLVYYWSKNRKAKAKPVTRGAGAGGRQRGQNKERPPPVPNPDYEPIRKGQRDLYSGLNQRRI
Sequence of human CD3 (P04234 22-171, chain 2 of 3): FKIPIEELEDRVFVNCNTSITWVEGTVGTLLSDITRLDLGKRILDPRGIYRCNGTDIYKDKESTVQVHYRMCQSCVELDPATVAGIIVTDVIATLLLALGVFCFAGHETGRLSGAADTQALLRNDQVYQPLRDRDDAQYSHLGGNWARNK
Sequence of human CD3 (P09693 23-182, chain 3 of 3): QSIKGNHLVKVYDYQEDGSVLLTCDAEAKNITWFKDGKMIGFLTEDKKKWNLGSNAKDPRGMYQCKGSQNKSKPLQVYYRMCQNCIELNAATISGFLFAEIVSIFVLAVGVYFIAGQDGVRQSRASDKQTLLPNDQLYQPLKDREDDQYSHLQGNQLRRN

B1: mAb 66 (antibody, V domains shown)
VH: QVQLVQSGAEVKKPGASVKVSCKASGYTVTGYYMHWVRQAPGQGLEWMGWINPNSGGTNFAQNFQGRVTMTRDTSISTFYMDLSRLRSDDTAVYYCARGGAPVSYWFFDLWGRGTLVTVSS
VL: DIQMTQSPSSLSASVGDRVTITCRASQSISRYLNWYQQKPGKAPKVLIYNTSSLKSGVPSRFSGSGSGTDFTLTISSLQPEDFATLYCQQSHSTPFTFGPGTKVDIK
Consider B1, for which the “CD4 EC50 (nM); CD69/CD25 on human T cells, plate-coated antibody” value (“CD4 EC50 (nM); CD69/CD25” below) came to 13 nM and the “CD8 EC50 (nM); CD69/CD25 on human T cells, plate-coated antibody” value (shortened to “CD8 EC50 (nM); CD69/CD25”) is 13.2 nM.

B2: mAb 54 (antibody, V domains shown)
VH: EVQLEESGGGLVQPGGSLRLSCAASGFTFSRYSMNWVRQAPGKGLEWFSYISSSSRTIYYADSVKGRFTMSRDNAKNSLYLQMNSLRDEDTAVYFCARGDYYDSEGMDVWGKGTTVTVSS
VL: DIQMTQSPSTLSASVGDRVTITCRASQTITTWLAWYQQKPGKAPKLLIYKASTLESGVPSRFSGSGSGTEFTLTISSLQPDDFATYHCQQYKTFSYTFGQGTKLDIK
Turning to B2, the “CD4 EC50 (nM); CD69/CD25” value came to 13.3 nM and the “CD8 EC50 (nM); CD69/CD25” value amounted to 15.2 nM.

B3: mAb 53 (antibody, V domains shown)
VH: QVQLVQSGAEVKKPGASVKVSCKASGYTFTSYDINWVRQATGQGLEWMGWMNPKSGKTGYAQKFQGRITMTRNTPISTVYMDLSSLRSEDTAVYYCAREGHYDFWTGYYSFDYWGQGTLVTVSS
VL: DIQMTQSPSSLSASVGDRVTITCRASQGIRNDLGWYQQTPGKAPKRLIYAASSLQSGVPSRFSGSGSGTEFTLTISSLQPEDFATYYCLQHYSYPYTFGQGTKLEIK
B3: the “CD4 EC50 (nM); CD69/CD25” value came to 18.3 nM and the “CD8 EC50 (nM); CD69/CD25” value came to 18.3 nM.

B4: mAb 73 (antibody, V domains shown)
VH: EVELVESGGGLVQPGRSLRLSCAASGFTFDDKVMHWVRQAPGKGLEWVSCINWNSGHIGYADSVKGRFTISRDNARTSLYLQMNSLRPEDTALYYCVREGNYDFWSGYYRGFFDLWGRGTLVTVSS
VL: B3 VL with T39K, S56G, Y92T, Y96F
With B4, the “CD4 EC50 (nM); CD69/CD25” value is 24.8 nM and the “CD8 EC50 (nM); CD69/CD25” value came out at 23 nM.

B5: mAb 55 (antibody, V domains shown)
VH: QVQLEQSGAEVKKPGASVKVSCKTSGYIFANYDINWVRQATGQGLEWMGWMNPKSGKAGYAQKFQGRVTMTSNTPINTAYMELSSLRSEDTAVYYCAREGHYDFWRGFYSFDYWGQGILVTVSS
VL: B3 VL with T39K, A50T, Y87F, H91Y, Y92N, S93T
With B5, the “CD4 EC50 (nM); CD69/CD25” value was 8.54 nM and the “CD8 EC50 (nM); CD69/CD25” value stood at 8.91 nM.

B6: mAb 67 (antibody, V domains shown)
VH: EVQLVESGGDLVQPGRSLRLSCAASGFTFDDCVIHWVRQAPGKGLEWVSGITWNSGRIGYADSVKGRFTISRDNAKNSLYLQMNSLRVEDTALYYCAKEGNYDFWSTYYRGYFDLWGRGTLVTVSS
VL: B3 VL with T39K, K42I, S56G, S60L, Y92N
Turning to B6, the “CD4 EC50 (nM); CD69/CD25” value was determined as 22 nM and the “CD8 EC50 (nM); CD69/CD25” value came to 21.3 nM.

B7: mAb 74 (antibody, V domains shown)
VH: EVQLVESGGGLVQPGRSLRLSCAASGFTFADYVMHWVRQAPGKGLEWVSGINWNNARIGYVGSVKGRFTISRDNAKNSLYLQMTSLRVEDTALYHCVREGNFDFWSAYYRGFLDLWGRGTLVTVSS
VL: B3 VL with N31S, T39K, A50G, S56G, Y92N
Turning to B7, the “CD4 EC50 (nM); CD69/CD25” value was 20.9 nM and the “CD8 EC50 (nM); CD69/CD25” value is 19.6 nM.

B8: mAb 71 (antibody, V domains shown)
VH: QVQLVQSGAEVRKPGASVKVSCKASGYTFTKYDVNWVRQAPGQGLEWMGWMNSNNGNIGYAQKFQGRVTMTRKTSISTAYMELSSLRSEDTAVYYCAREGHYDFWRGFYNFDYWGQGTLVTVSS
VL: B3 VL with G28D, R30K, T39K, Y92N, S93F, Y96I, K103R
Take B8: the “CD4 EC50 (nM); CD69/CD25” value came to 19.3 nM and the “CD8 EC50 (nM); CD69/CD25” value is 19.2 nM.

B9: mAb 43 (antibody, V domains shown)
VH: QAQLVQSGSELKKPGASVKVSCKASGYTFTKHSMNWVRQAPGQGLEWMGWINTNTGNPMYAQGFTGRFVFSLDTSVTTAYLQISSLKAEDTAVYYCAREGDYDFWSGFFNFDYWGQGTLVTVSS
VL: B3 VL with T39K, T69A, Y92N, Y96R, L104V
Take B9: the “CD4 EC50 (nM); CD69/CD25” value is 24.6 nM and the “CD8 EC50 (nM); CD69/CD25” value turned out to be 25.6 nM.

B10: mAb 174 (antibody, V domains shown)
VH: EVQLVESGGGLVQPGGSLRLSCAASGFTFSSNWMSWVRQAPGKGLEWVANIKQDGSEKYSVDSVKGRFTISRDNAKNSLYLQMNSLRAEDTAVYYCARDRSRNYYWYFDLWGRGTLVTVSS
VL: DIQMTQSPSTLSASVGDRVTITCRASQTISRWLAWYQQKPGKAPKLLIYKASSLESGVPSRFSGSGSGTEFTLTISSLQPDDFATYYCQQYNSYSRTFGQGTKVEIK
For the molecule B10, the “CD4 EC50 (nM); CD69/CD25” value was 19.5 nM and the “CD8 EC50 (nM); CD69/CD25” value came to 19.4 nM.

B11: mAb 175 (antibody, V domains shown)
VH: B10 VH with Q3E, S60Y, Q82K, R100C, R102S, Y104W
VL: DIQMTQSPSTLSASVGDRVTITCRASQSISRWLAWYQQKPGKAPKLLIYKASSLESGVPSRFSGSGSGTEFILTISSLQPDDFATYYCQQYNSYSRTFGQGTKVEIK
B11: the “CD4 EC50 (nM); CD69/CD25” value was 21.6 nM and the “CD8 EC50 (nM); CD69/CD25” value came to 21.2 nM.

B12: mAb 176 (antibody, V domains shown)
VH: EVELVESGGGLVQPGRSLRLSCAASGFKFDDYTMHWVRLPPGKGLEWVSGISWNSGTIDYGDSVKGRFTISRDNAKNSLYLQMNSLRVEDTALYYCAKDTSGYGHYFYYYMDVWGKGTTVTVSS
VL: DIQMTQSPSSLSASIGDRVSITCRTSQIINNYLNWYQQKPGKAPKVLIYSASSLQSGVPSRFSGSGSGTDFTLTINSLQPEDFATYYCQQSYNFPITFGQGTRLELK
As for B12, the “CD4 EC50 (nM); CD69/CD25” value came out at 6.38 nM and the “CD8 EC50 (nM); CD69/CD25” value came to 6.37 nM.

B13: mAb 177 (antibody, V domains shown)
VH: EVQLVESGGGLVQPGMSLRLSCAASGFTFDDYTMHWVRQSPGKGLEWVAGISWNSGTIGYGDSMKGRFTISRDNAKNSLDLQMNSLRVEDTALYYCAKDTSGYGHYYYYFMDVWGKGTTVTVSS
VL: B12 VL with V46L, I75L, N76S, Y87F
B13: the “CD4 EC50 (nM); CD69/CD25” value came to 14.3 nM and the “CD8 EC50 (nM); CD69/CD25” value worked out at 14.2 nM.

B14: mAb 68 (antibody, V domains shown)
VH: EVQLVDSGGGLVQPGGSLRLSCSGSGFTFSSYWMSWVRQAPGKGLEWVANIKQDGSQKYYVDSVKGRFTISRDNVKNSLYLQMNSLRVEDTAVYYCARDESSSWYWYFDLWGRGTLVTVSS
VL: DIQMTQSPSTLSASVGDRVTLTCRASQNIVKWLAWYQQKPGKAPKLLIYKASSLESGVPSWFSGSGSGTEFTLTINSLQPDDFATYYCQQYYTYSRTFGQGTKVEIK
Turning to B14, the “CD4 EC50 (nM); CD69/CD25” value came out at 12.5 nM and the “CD8 EC50 (nM); CD69/CD25” value was determined as 12.6 nM.

B15: mAb 72 (antibody, V domains shown)
VH: B14 VH with S23A, G24A, Q57E, Y80S, Q82E, V88A, V93L
VL: B14 VL with L21I, N28S, V30S, S56N, W61R, N76S, Y92S, T93S
Take B15: the “CD4 EC50 (nM); CD69/CD25” value worked out at 16.4 nM and the “CD8 EC50 (nM); CD69/CD25” value was 18.2 nM.

B16: mAb 172 (antibody, V domains shown)
V domain 1: EVQLVESGGGLVQPGRSLRLSCTTSGFTFDDYTMHWVRQVPGKGLEWVSDISWNSGSVGYADSVKGRFTISRDNAKNSLYLQMNSLRAEDTALYYCVKDSSGYGHYFHYYMDVWGKGTTVTVSS
V domain 2: B16 V domain 1
Turning to B16, the “CD4 EC50 (nM); CD69/CD25” value was 23.2 nM and the “CD8 EC50 (nM); CD69/CD25” value was 22.9 nM.

B17: mAb 178 (antibody, V domains shown)
VH: B16 V domain 1 with T23A, T24A, V40A, S57T, V58I, F107Y, H108K
VL: DIQMTQSPSSLSASVGDRVTITCRASQSISNYLNWYQQKAGKVPKVLIYGSSSLQSGVPSRFSGSGSGTDFTLTISSLQPEDFASYYCQQTYSSPLTFGGGTKVDFK
Take B17: the “CD4 EC50 (nM); CD69/CD25” value came to 12.6 nM and the “CD8 EC50 (nM); CD69/CD25” value amounted to 12.6 nM.

B18: mAb 179 (antibody, V domains shown)
VH: B16 V domain 1 with T23A, T24A, V40T, V58I, S78T, F107L, H108Y
VL: DIQMTQSPSSLSASVGDRVTITCRASQSIRNYLNWYQQSPGRAPKLLIFSASSLQSGVPSRFSGSGSGTDFTLTISSLQPEDFVTYYCQQRYSTPITFGQGTRLEIK
As to B18, the “CD4 EC50 (nM); CD69/CD25” value was 10.4 nM and the “CD8 EC50 (nM); CD69/CD25” value turned out to be 9.87 nM.

B19: mAb 173 (antibody, V domains shown)
VH: B16 V domain 1 with T23A, T24A
VL: DIQMTQSPSSLSASVGDRVTITCRASQSISNYLNWYQVKPGKAPKVLIYAASSLQSGVPSRFSGSGSGTDFTLTISSLQPEDFVSYYCHQSYNTPITFGQGTRLEIK
As to B19, the “CD4 EC50 (nM); CD69/CD25” value was 12.5 nM and the “CD8 EC50 (nM); CD69/CD25” value was 12.3 nM.

B20: mAb 180 (antibody, V domains shown)
VH: B16 V domain 1 with Q3N, T23A, T24A, D50N, V58L, N77D, A88V, V97A, F107N, H108S
VL: B18 VL with S39K, R42K, L46V, F49Y, V84A, T85S, Y86F, R91T
Turning to B20, the “CD4 EC50 (nM); CD69/CD25” value is 6.54 nM and the “CD8 EC50 (nM); CD69/CD25” value was 6.57 nM.
